Measurements from the supplement of paper PMC10724198.
± gives the standard deviation of the averaged measurements.

Columns and labels:
Saccharomyces cerevisiae [1] = assay: protein stability index of tFT-peptide fusion (C-terminal peptide) (PSI (0-1 scale)); higher = more stable (slower turnover)
Experimental: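 MPS profiling in S. cerevisiae of the tFT-X12 degron library: putative degron peptides plus stable controls, 12 aa, fused to the C-terminus of a sfGFP-mCherry timer. Cells are FACS-sorted into 8 mCherry/sfGFP bins and deep-sequenced. PSI runs from 0 (unstable) to 1 (stable). Backgrounds are wild type, das1Δ and doa10Δ at 30 °C, and wild type, das1Δ, cdc34-1 and cdc53-1 at 37 °C; 2-3 technical replicates each.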

Saccharomyces cerevisiae [2] = assay: as above; settings: genetic background: wild type; temperature: 30 C
[3] = genetic background: cdc53-1, temperature: 37 C
[4] = genetic background: das1 deletion, temperature: 30 C
[5] = genetic background: das1 deletion, temperature: 37 C
[6] = genetic background: doa10 deletion, temperature: 30 C
[7] = genetic background: wild type, temperature: 37 C
[8] = genetic background: cdc34-1, temperature: 37 C
[9] = genetic background: wild type, temperature: 30 C
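Also: PSI is a weighted mean of sequencing reads over stability bins, variants kept only with over 10 reads, mCherry proximal and sfGFP distal, peptide attached via GGGS linker.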

## SWFRRPFPPRLL
Saccharomyces cerevisiae [1]; [3]
  protein stability index: 0.6 ± 0.025
Saccharomyces cerevisiae [1]; [4]
  protein stability index: 0.606 ± 0.052
Saccharomyces cerevisiae [1]; [5]
  protein stability index: 0.67 ± 0.063
Saccharomyces cerevisiae [1]; [6]
  protein stability index: 0.048 ± 0.068
Saccharomyces cerevisiae [1]; [7]
  protein stability index: 0.0127 ± 0.018
Saccharomyces cerevisiae [2]
  protein stability index: 0.158 ± 0.094

## SWLAQCVVISLL
Saccharomyces cerevisiae [1]; [8]
  protein stability index: 0.634 ± 0.015
Saccharomyces cerevisiae [1]; [3]
  protein stability index: 0.654 ± 0.014
Saccharomyces cerevisiae [1]; [4]
  protein stability index: 0.507 ± 0.029
Saccharomyces cerevisiae [1]; [5]
  protein stability index: 0.662 ± 0.016
Saccharomyces cerevisiae [1]; [6]
  protein stability index: 0.352 ± 0.0055
Saccharomyces cerevisiae [1]; [9]
  protein stability index: 0.364 ± 0.019
Saccharomyces cerevisiae [1]; [7]
  protein stability index: 0.56 ± 0.061
Saccharomyces cerevisiae [2]
  protein stability index: 0.459 ± 0.011

## TALSRLFECFLS
Saccharomyces cerevisiae [1]; [8]
  protein stability index: 0.654 ± 0.052
Saccharomyces cerevisiae [1]; [3]
  protein stability index: 0.744 ± 0.026
Saccharomyces cerevisiae [1]; [4]
  protein stability index: 0.701 ± 0.028
Saccharomyces cerevisiae [1]; [5]
  protein stability index: 0.768 ± 0.01
Saccharomyces cerevisiae [1]; [6]
  protein stability index: 0.328 ± 0.0048
Saccharomyces cerevisiae [1]; [9]
  protein stability index: 0.343 ± 0.03
Saccharomyces cerevisiae [1]; [7]
  protein stability index: 0.499 ± 0.035
Saccharomyces cerevisiae [2]
  protein stability index: 0.461 ± 0.046

## TCGAKWIFSHIC
Saccharomyces cerevisiae [1]; [8]
  protein stability index: 0.6 ± 0.054
Saccharomyces cerevisiae [1]; [3]
  protein stability index: 0.754 ± 0.011
Saccharomyces cerevisiae [1]; [4]
  protein stability index: 0.646 ± 0.022
Saccharomyces cerevisiae [1]; [5]
  protein stability index: 0.772 ± 0.016
Saccharomyces cerevisiae [1]; [6]
  protein stability index: 0.14 ± 0.0052
Saccharomyces cerevisiae [1]; [9]
  protein stability index: 0.152 ± 0.0092
Saccharomyces cerevisiae [1]; [7]
  protein stability index: 0.275 ± 0.035
Saccharomyces cerevisiae [2]
  protein stability index: 0.267 ± 0.019

## TFVGWIVWLCGS
Saccharomyces cerevisiae [1]; [8]
  protein stability index: 0.537 ± 0.026
Saccharomyces cerevisiae [1]; [3]
  protein stability index: 0.621 ± 0.0073
Saccharomyces cerevisiae [1]; [4]
  protein stability index: 0.487 ± 0.033
Saccharomyces cerevisiae [1]; [5]
  protein stability index: 0.6164 ± 0.0052
Saccharomyces cerevisiae [1]; [6]
  protein stability index: 0.216 ± 0.0069
Saccharomyces cerevisiae [1]; [9]
  protein stability index: 0.258 ± 0.022
Saccharomyces cerevisiae [1]; [7]
  protein stability index: 0.456 ± 0.0097
Saccharomyces cerevisiae [2]
  protein stability index: 0.331 ± 0.018

## TFVLREYVWVMS
Saccharomyces cerevisiae [1]; [8]
  protein stability index: 0.443 ± 0.049
Saccharomyces cerevisiae [1]; [3]
  protein stability index: 0.425 ± 0.011
Saccharomyces cerevisiae [1]; [4]
  protein stability index: 0.254 ± 0.038
Saccharomyces cerevisiae [1]; [5]
  protein stability index: 0.443 ± 0.0057
Saccharomyces cerevisiae [1]; [6]
  protein stability index: 0.202 ± 0.0032
Saccharomyces cerevisiae [1]; [9]
  protein stability index: 0.231 ± 0.027
Saccharomyces cerevisiae [1]; [7]
  protein stability index: 0.426 ± 0.027
Saccharomyces cerevisiae [2]
  protein stability index: 0.304 ± 0.0032

## TIKGRLNVRKIE
Saccharomyces cerevisiae [1]; [8]
  protein stability index: 0.653 ± 0.055
Saccharomyces cerevisiae [1]; [3]
  protein stability index: 0.7066 ± 0.0065
Saccharomyces cerevisiae [1]; [4]
  protein stability index: 0.623 ± 0.0085
Saccharomyces cerevisiae [1]; [5]
  protein stability index: 0.741 ± 0.025
Saccharomyces cerevisiae [1]; [6]
  protein stability index: 0.3538 ± 0.0019
Saccharomyces cerevisiae [1]; [9]
  protein stability index: 0.463 ± 0.032
Saccharomyces cerevisiae [1]; [7]
  protein stability index: 0.573 ± 0.085
Saccharomyces cerevisiae [2]
  protein stability index: 0.552 ± 0.11

## TPYIFVLACLHV
Saccharomyces cerevisiae [1]; [8]
  protein stability index: 0.395 ± 0.0014
Saccharomyces cerevisiae [1]; [3]
  protein stability index: 0.476 ± 0.0062
Saccharomyces cerevisiae [1]; [4]
  protein stability index: 0.326 ± 0.013
Saccharomyces cerevisiae [1]; [5]
  protein stability index: 0.5039 ± 0.0042
Saccharomyces cerevisiae [1]; [6]
  protein stability index: 0.274 ± 0.013
Saccharomyces cerevisiae [1]; [9]
  protein stability index: 0.309 ± 0.021
Saccharomyces cerevisiae [1]; [7]
  protein stability index: 0.461 ± 0.0069
Saccharomyces cerevisiae [2]
  protein stability index: 0.372 ± 0.0091

## TRKKENERRKNG
Saccharomyces cerevisiae [1]; [8]
  protein stability index: 0.653 ± 0.032
Saccharomyces cerevisiae [1]; [3]
  protein stability index: 0.7213 ± 0.0044
Saccharomyces cerevisiae [1]; [4]
  protein stability index: 0.654 ± 0.015
Saccharomyces cerevisiae [1]; [5]
  protein stability index: 0.71 ± 0.025
Saccharomyces cerevisiae [1]; [6]
  protein stability index: 0.245 ± 0.013
Saccharomyces cerevisiae [1]; [9]
  protein stability index: 0.278 ± 0.04
Saccharomyces cerevisiae [1]; [7]
  protein stability index: 0.558 ± 0.012
Saccharomyces cerevisiae [2]
  protein stability index: 0.422 ± 0.031

## TSFCIFFVRFVI
Saccharomyces cerevisiae [1]; [8]
  protein stability index: 0.374 ± 0.059
Saccharomyces cerevisiae [1]; [3]
  protein stability index: 0.478 ± 0.021
Saccharomyces cerevisiae [1]; [4]
  protein stability index: 0.365 ± 0.022
Saccharomyces cerevisiae [1]; [5]
  protein stability index: 0.50904 ± 0.00041
Saccharomyces cerevisiae [1]; [6]
  protein stability index: 0.277 ± 0.021
Saccharomyces cerevisiae [1]; [9]
  protein stability index: 0.289 ± 0.041
Saccharomyces cerevisiae [1]; [7]
  protein stability index: 0.469 ± 0.015
Saccharomyces cerevisiae [2]
  protein stability index: 0.322 ± 0.025

## TVETYNRARKAS
Saccharomyces cerevisiae [1]; [8]
  protein stability index: 0.663 ± 0.0089
Saccharomyces cerevisiae [1]; [3]
  protein stability index: 0.674 ± 0.014
Saccharomyces cerevisiae [1]; [4]
  protein stability index: 0.631 ± 0.038
Saccharomyces cerevisiae [1]; [5]
  protein stability index: 0.7 ± 0.015
Saccharomyces cerevisiae [1]; [6]
  protein stability index: 0.218 ± 0.013
Saccharomyces cerevisiae [1]; [9]
  protein stability index: 0.232 ± 0.039
Saccharomyces cerevisiae [1]; [7]
  protein stability index: 0.412 ± 0.005
Saccharomyces cerevisiae [2]
  protein stability index: 0.373 ± 0.075

## TVVIFLCSYITT
Saccharomyces cerevisiae [1]; [8]
  protein stability index: 0.183 ± 0.06
Saccharomyces cerevisiae [1]; [3]
  protein stability index: 0.24 ± 0.11
Saccharomyces cerevisiae [1]; [4]
  protein stability index: 0.139 ± 0.015
Saccharomyces cerevisiae [1]; [5]
  protein stability index: 0.298 ± 0.008
Saccharomyces cerevisiae [1]; [6]
  protein stability index: 0.0829 ± 0.03
Saccharomyces cerevisiae [1]; [9]
  protein stability index: 0.122 ± 0.04
Saccharomyces cerevisiae [1]; [7]
  protein stability index: 0.275 ± 0.019
Saccharomyces cerevisiae [2]
  protein stability index: 0.186 ± 0.0068

## TYNVMFSPWRKA
Saccharomyces cerevisiae [1]; [8]
  protein stability index: 0.604 ± 0.07
Saccharomyces cerevisiae [1]; [3]
  protein stability index: 0.7064 ± 0.005
Saccharomyces cerevisiae [1]; [4]
  protein stability index: 0.667 ± 0.032
Saccharomyces cerevisiae [1]; [5]
  protein stability index: 0.774 ± 0.0098
Saccharomyces cerevisiae [1]; [6]
  protein stability index: 0.106 ± 0.007
Saccharomyces cerevisiae [1]; [9]
  protein stability index: 0.148 ± 0.034
Saccharomyces cerevisiae [1]; [7]
  protein stability index: 0.3808 ± 0.0022
Saccharomyces cerevisiae [2]
  protein stability index: 0.206 ± 0.011

## TYYPLNRSRFIG
Saccharomyces cerevisiae [1]; [8]
  protein stability index: 0.5858 ± 0.0048
Saccharomyces cerevisiae [1]; [3]
  protein stability index: 0.7261 ± 0.0025
Saccharomyces cerevisiae [1]; [4]
  protein stability index: 0.635 ± 0.035
Saccharomyces cerevisiae [1]; [5]
  protein stability index: 0.7616 ± 0.0049
Saccharomyces cerevisiae [1]; [6]
  protein stability index: 0.108 ± 0.0073
Saccharomyces cerevisiae [1]; [9]
  protein stability index: 0.139 ± 0.0058
Saccharomyces cerevisiae [1]; [7]
  protein stability index: 0.241 ± 0.023
Saccharomyces cerevisiae [2]
  protein stability index: 0.277 ± 0.15

## VAALFPPLRFLN
Saccharomyces cerevisiae [1]; [8]
  protein stability index: 0.554 ± 0.0075
Saccharomyces cerevisiae [1]; [3]
  protein stability index: 0.711 ± 0.008
Saccharomyces cerevisiae [1]; [4]
  protein stability index: 0.653 ± 0.017
Saccharomyces cerevisiae [1]; [5]
  protein stability index: 0.734 ± 0.014
Saccharomyces cerevisiae [1]; [6]
  protein stability index: 0.0912 ± 0.013
Saccharomyces cerevisiae [1]; [9]
  protein stability index: 0.122 ± 0.036
Saccharomyces cerevisiae [1]; [7]
  protein stability index: 0.224 ± 0.031
Saccharomyces cerevisiae [2]
  protein stability index: 0.286 ± 0.045

## VCFAWWGARCVA
Saccharomyces cerevisiae [1]; [8]
  protein stability index: 0.601 ± 0.01
Saccharomyces cerevisiae [1]; [3]
  protein stability index: 0.619 ± 0.0063
Saccharomyces cerevisiae [1]; [4]
  protein stability index: 0.468 ± 0.026
Saccharomyces cerevisiae [1]; [5]
  protein stability index: 0.6475 ± 0.0032
Saccharomyces cerevisiae [1]; [6]
  protein stability index: 0.304 ± 0.024
Saccharomyces cerevisiae [1]; [9]
  protein stability index: 0.357 ± 0.028
Saccharomyces cerevisiae [1]; [7]
  protein stability index: 0.534 ± 0.029
Saccharomyces cerevisiae [2]
  protein stability index: 0.477 ± 0.023

## VCFFLFWCLSFS
Saccharomyces cerevisiae [1]; [8]
  protein stability index: 0.4239 ± 0.0013
Saccharomyces cerevisiae [1]; [3]
  protein stability index: 0.479 ± 0.021
Saccharomyces cerevisiae [1]; [4]
  protein stability index: 0.343 ± 0.05
Saccharomyces cerevisiae [1]; [5]
  protein stability index: 0.4916 ± 0.00098
Saccharomyces cerevisiae [1]; [6]
  protein stability index: 0.348 ± 0.011
Saccharomyces cerevisiae [1]; [9]
  protein stability index: 0.353 ± 0.025
Saccharomyces cerevisiae [1]; [7]
  protein stability index: 0.476 ± 0.021
Saccharomyces cerevisiae [2]
  protein stability index: 0.454 ± 0.034

## VCLCVIICSMSV
Saccharomyces cerevisiae [1]; [8]
  protein stability index: 0.0201 ± 0.00092
Saccharomyces cerevisiae [1]; [3]
  protein stability index: 0.041 ± 0.019
Saccharomyces cerevisiae [1]; [4]
  protein stability index: 0.0324 ± 0.008
Saccharomyces cerevisiae [1]; [5]
  protein stability index: 0.0699 ± 0.011
Saccharomyces cerevisiae [1]; [6]
  protein stability index: 0.0265 ± 0.0033
Saccharomyces cerevisiae [1]; [9]
  protein stability index: 0.0249 ± 0.0073
Saccharomyces cerevisiae [1]; [7]
  protein stability index: 0.0544 ± 0.01
Saccharomyces cerevisiae [2]
  protein stability index: 0.0535 ± 0.018

## VCQVCVCFLFWR
Saccharomyces cerevisiae [1]; [8]
  protein stability index: 0.0977 ± 0.0034
Saccharomyces cerevisiae [1]; [3]
  protein stability index: 0.0539 ± 0.0021
Saccharomyces cerevisiae [1]; [4]
  protein stability index: 0.145 ± 0.032
Saccharomyces cerevisiae [1]; [5]
  protein stability index: 0.181 ± 0.0077
Saccharomyces cerevisiae [1]; [6]
  protein stability index: 0.27 ± 0.018
Saccharomyces cerevisiae [1]; [9]
  protein stability index: 0.139 ± 0.016
Saccharomyces cerevisiae [1]; [7]
  protein stability index: 0.169 ± 0.017
Saccharomyces cerevisiae [2]
  protein stability index: 0.228 ± 0.043

## VCVVVLVGVVFL
Saccharomyces cerevisiae [1]; [8]
  protein stability index: 0.188 ± 0.031
Saccharomyces cerevisiae [1]; [3]
  protein stability index: 0.3491 ± 0.0012
Saccharomyces cerevisiae [1]; [4]
  protein stability index: 0.237 ± 0.02
Saccharomyces cerevisiae [1]; [5]
  protein stability index: 0.3828 ± 0.0025
Saccharomyces cerevisiae [1]; [6]
  protein stability index: 0.198 ± 0.0055
Saccharomyces cerevisiae [1]; [9]
  protein stability index: 0.24 ± 0.031
Saccharomyces cerevisiae [1]; [7]
  protein stability index: 0.314 ± 0.0088
Saccharomyces cerevisiae [2]
  protein stability index: 0.3 ± 0.036
